Reference: article PMC2515335 (2008)

Molecular target: T1, Importin-β3 (Homo sapiens, UniProt O00410)
T1 chain: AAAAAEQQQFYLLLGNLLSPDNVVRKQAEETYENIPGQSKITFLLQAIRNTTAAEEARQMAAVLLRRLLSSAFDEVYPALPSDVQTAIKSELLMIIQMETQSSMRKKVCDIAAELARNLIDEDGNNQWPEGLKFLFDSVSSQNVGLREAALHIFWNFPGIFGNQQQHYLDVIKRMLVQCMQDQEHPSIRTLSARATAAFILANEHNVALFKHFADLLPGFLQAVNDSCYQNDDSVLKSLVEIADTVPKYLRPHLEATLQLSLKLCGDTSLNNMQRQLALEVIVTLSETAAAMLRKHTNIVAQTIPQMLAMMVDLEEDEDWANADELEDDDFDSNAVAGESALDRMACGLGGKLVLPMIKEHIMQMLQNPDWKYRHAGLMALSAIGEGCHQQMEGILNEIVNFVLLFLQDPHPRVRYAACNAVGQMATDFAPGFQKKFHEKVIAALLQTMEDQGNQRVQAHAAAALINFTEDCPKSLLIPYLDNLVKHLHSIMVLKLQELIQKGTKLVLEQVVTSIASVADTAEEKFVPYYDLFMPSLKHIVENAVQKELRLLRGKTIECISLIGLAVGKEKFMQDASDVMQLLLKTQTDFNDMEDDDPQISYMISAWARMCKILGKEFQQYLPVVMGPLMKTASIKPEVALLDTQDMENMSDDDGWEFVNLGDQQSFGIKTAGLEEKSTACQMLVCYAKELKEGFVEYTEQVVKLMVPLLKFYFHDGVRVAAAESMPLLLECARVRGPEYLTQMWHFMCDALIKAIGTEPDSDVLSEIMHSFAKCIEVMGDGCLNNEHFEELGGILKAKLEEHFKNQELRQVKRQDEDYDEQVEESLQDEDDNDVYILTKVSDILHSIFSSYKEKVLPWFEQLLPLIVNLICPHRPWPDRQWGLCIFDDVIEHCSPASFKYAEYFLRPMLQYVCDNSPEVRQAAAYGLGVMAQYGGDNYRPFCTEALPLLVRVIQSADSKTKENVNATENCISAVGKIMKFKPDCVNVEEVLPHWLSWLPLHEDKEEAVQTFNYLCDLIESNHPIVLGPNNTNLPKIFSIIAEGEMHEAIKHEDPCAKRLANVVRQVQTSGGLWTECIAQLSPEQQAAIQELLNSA
Assay: native PAGE gel-shift mobility assay/fluorimetry

B1: Vpr 1-96 (protein)
chain: MEQAPEDQGPQREPYNEWTLELLEELKSEAVRHFPRIWLHNLGQHIYETYGDTWAGVEAIIRILQQLLFIHFRIGCRHSRIGVTRQRRARNGASRS
Q: For B1, which Kd is on record?
A: 660 nM
